# In patent US12397036B2, “Peptide exchange protein” (Cambridge Enterprise Limited, priority 2018, dated 2025):
# T1: H-2K^b expressed on EL4 (Mus musculus, UniProt P01901)
# T1 construct: surface expressed H-2K^b are relatively more peptide receptive compared to human MHC I molecules; endogenous in cells; host or cells: EL4 (murine tumour cell line)
# T1 sequence (P01901 22-369): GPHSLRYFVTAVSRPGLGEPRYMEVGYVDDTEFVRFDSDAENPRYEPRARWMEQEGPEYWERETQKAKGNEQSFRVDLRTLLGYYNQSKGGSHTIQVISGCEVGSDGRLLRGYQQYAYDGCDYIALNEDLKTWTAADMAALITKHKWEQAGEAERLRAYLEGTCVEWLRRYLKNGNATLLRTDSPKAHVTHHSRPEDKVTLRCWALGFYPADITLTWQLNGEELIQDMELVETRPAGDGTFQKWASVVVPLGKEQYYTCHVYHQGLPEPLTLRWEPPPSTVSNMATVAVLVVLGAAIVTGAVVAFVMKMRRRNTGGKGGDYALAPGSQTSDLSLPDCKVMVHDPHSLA
# T1 sequence (P01887 21-119 partner): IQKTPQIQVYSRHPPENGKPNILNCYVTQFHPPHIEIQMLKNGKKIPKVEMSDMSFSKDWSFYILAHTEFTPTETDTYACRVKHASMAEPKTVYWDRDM
# B1: soluble TAPBPR^WT: secreted His-tagged luminal domain of human TAPBPR, lacking transmembrane domain and cytoplasmic tail; SEQ ID NO: 2 (protein)
# chain: KPHPAEGQWRAVDVVLDCFLVKDGAHRGALASSEDRARASLVLKQVPVLDDGSLEDFTDFQGGTLAQDDPPIIFEASVDLVQIPQAEALLHADCSGKEVTCEISRYFLQMTETTVKTAAWFMANVQVSGGGPSISLVMKTPRVAKNEVLWHPTLNLPLSPQGTVRTAVEFQVMTQTQSLSFLLGSSASLDCGFSMAPGLDLISVEWRLQHKGRGQLVYSWTAGQGQAVRKGATLEPAQLGMARDASLTLPGLTIQDEGTYICQITTSLYRAQQIIQLNIQASPKVRLSLANEALLPTLICDIAGYYPLDVVVTWTREELGGSPAQVSGASFSSLRQSVAGTYSISSSLTAEPGSAGATYTCQVTHISLEEPLGASTQVVPPERR
# modifications: His tag; TAPBPR luminal domain (mature sequence without 21 aa leader sequence)
# Columns and labels:
# HLA-A*02:01 = molecular target: T2, HLA-A*02:01 (Homo sapiens, UniProt P04439, D140Y/D185E/D98H/E176V/E277Q/G131W/G231S/I119V/I121R/I166T/I218V/L300P/L318F/N151K/N90K/P208A/P217A/Q86G/Q94H/R138H/R169H/T345S); assay type: cell-based; conditions: ETV* (HLA-A*68:02) and SRY* (HLA-B*27) controls
# T2 construct: expressed in transfected cells; host or cells: HeLaM-HLA-ABC-KO
# Experimental: (g) Dose response curves of IFN-γ treated HeLaM and HeLaM-HLA-ABC^KO cells treated −/+100 nM TAPBPR with increasing concentrations of ETVSK*QSNV for 15 min at 37° C. Line graphs show MFI−/+s.e.m from three independent experiments. […] (h) Histograms of the typical fluorescent peptide binding observed using flow cytometry. (i) Bar graphs showing the MFI of fluorescent peptide binding to HeLaM HLA-ABC^KO+A2−/+s.e.m from two independent experiments with duplicates. ***P≤0.001, ****P≤0.0001, n/s not significant, using unpaired two-tailed t-test.
# Target cell lines were seeded at 25,000-30,000 cells/well in 12-well plates and stimulated with IFN-γ. Following the stimulation period, the cells were washed 3 times with 1×PBS and incubated with 300 μL pre-warmed opti-MEM (Thermo Fisher Scientific, UK). In case the peptide binding was done in the presence of recombinant TAPBPR, the cells were then treated with or without recombinant TAPBPR (100 nM for HLA-A*68:02 or 1 μM for HLA-A*02:01). After 15 min, the desired TAMRA-labelled peptide was added to the cells and incubated at 37° C. (15 min for HLA-A*68:02 or 60 min for HLA-A*02:01). In case the peptide binding was facilitated by over-expressed TAPBPR, the labelled peptide was directly added to the cells, without using recombinant TAPBPR. […] The level of bound peptide/cell was determined by flow cytometry, using the YelFL1 channel (Cytek).
# H-2K^b expressed on EL4 = molecular target: T1, H-2K^b expressed on EL4; experiment: […] loading on EL4 cells (SIINFEK*L and 25-D1.16 mAb); assay type: cell-based, murine; conditions: 1 μM TAPBPR, 1 nM peptide 30 min
# Experimental: (§1) Histograms are representative of three independent experiments. (19d) Bar graphs show the MFI of 25-D1.16−/+SD from three independent experiments. (19e) OT1 killing of EL4 cells treated −/+1 μM soluble TAPBPR^WT or TAPBPR^TN5, followed by incubation with 1 nM […] peptide. Error bars−/+s.e.m from triplicate wells. Data is representative of three independent experiments. Note: surface expressed H-2K^b are relatively more peptide receptive compared to human MHC I molecules. […] As OT1 T cells are highly efficient cytotoxic cells, killing 80-100% of targets after 1-4 hours, we decreased the concentration of […] used in these experiments to 1 nM in order to differentiate between TAPBPR-mediated and background peptide binding, otherwise we would not observe an additive effect of soluble TAPBPR on target cell killing.
# HLA-A*68:02 = molecular target: T3, HLA-A*68:02 (Homo sapiens, UniProt P04439, A269V/D140Y/D185E/E176V/E277Q/E87N/F33Y/G231S/I121R/I166T/I218V/L180W/L300P/L318F/N151K/P208A/P217A/Q86R/R138H/R169H/S129P/T345S/V36M); experiment: Fluorescent peptide binding to HeLaM cells treated with exogenous soluble TAPBPR; assay type: cell-based
# T3 construct: HLA-A68 (MHC class I) expressed on HeLa; endogenous in cells; host or cells: HeLaM and derivatives (TAPBPR-KO with or without TAPBPR/tapasin constructs, +Her2, Her2-KO, +PDL1, pD-GFP); in some arms HeLaM-HLA-ABC-KO re-expressing HLA-A*68:02
# Experimental: Target cell lines were seeded at 25,000-30,000 cells/well in 12-well plates and stimulated with IFN-γ. Following the stimulation period, the cells were washed 3 times with 1×PBS and incubated with 300 μL pre-warmed opti-MEM (Thermo Fisher Scientific, UK). In case the peptide binding was done in the presence of recombinant TAPBPR, the cells were then treated with or without recombinant TAPBPR (100 nM for HLA-A*68:02 or 1 μM for HLA-A*02:01). After 15 min, the desired TAMRA-labelled peptide was added to the cells and incubated at 37° C. (15 min for HLA-A*68:02 or 60 min for HLA-A*02:01). In case the peptide binding was facilitated by over-expressed TAPBPR, the labelled peptide was directly added to the cells, without using recombinant TAPBPR. Following the peptide treatment, the cells were washed three times in 1×PBS and harvested. The level of bound peptide/cell was determined by flow cytometry, using the YelFL1 channel (Cytek).
# We next asked whether the exogenous TAPBPR bound to surface MHC class I molecules was capable of peptide exchange similarly to the membrane anchored version. Following incubation of cells for 15 min at 37° C. in the presence or absence of 100 nM exogenous TAPBPR, cells were treated with or without 10 nM fluorescent peptide for an additional 15 mins.
# [1] = molecular target: surface GFP on HeLaM cells (Aequorea victoria, UniProt P42212, F64L/H231L/S65T)
# Experimental: (B) Histograms and (C) Bar graphs compare the binding of recombinant soluble TAPBPR (TAPBPR) with recombinant TAPBPR-fused to a nanobody specific for GFP (TAPBPR-GFPNB) to HeLaM cells (left) and HeLaM-pD-GFP cells (right). Histograms show the level of TAPBPR when the two cell lines were incubated with 100 nM protein while bar graphs summarise results using a range of concentrations of protein (0.001-100 nM). […] Each bar represents mean and standard deviation of three independent experiments.
# EL4 tumour cells = experiment: OT1 T cell killing of EL4 tumour cells; assay type: cell-based, murine; conditions: 1 μM TAPBPR, 1 nM SIINFEKL
# Experimental: as §1
# Although the results above provide indication that soluble TAPBPR could be utilised to decorate target cells with immunogenic peptides and enhance T cell responses against tumours, we next determined whether this could result in enhanced killing of tumour cells. We assessed killing of murine EL4 tumour cells by OT1 T cells in the presence of human TAPBPR and very low concentrations of […] peptide.
# Her2 = molecular target: T4, Her2 (Homo sapiens, UniProt P04626); experiment: Binding of recombinant TAPBPR proteins to HeLaM, HeLaM+Her2 and HeLaM^Her2KO cells; conditions: 100 nM recombinant protein
# T4 construct: HeLaM cells which naturally express Her2; endogenous in cells; host or cells: HeLaM, HeLaM+Her2 (over-expressing), HeLaM-Her2-KO (negative control)
# Experimental: Histograms show the level of TAPBPR when the two cell lines were incubated with 100 nM protein while bar graphs summarise results using a range of concentrations of protein (0.001-100 nM). […] Each bar represents mean and standard deviation of three independent experiments.
# Each bar represents mean and standard deviation of three independent experiments.
molecule,measurement,setting,value
B1,binding of peptides specific for other MHC class I molecules onto HLA-A2,HLA-A*02:01,did not promote the binding
same,loading of SIINFEKL onto H-2K^b,H-2K^b expressed on EL4,significantly enhanced the loading of SIINFEKL
same,binding of exogenous fluorescent peptides ETVSK*QSNV and YVVPKVAK*V to HeLaM,"HLA-A*68:02; 100 nM exogenous TAPBPR 15 min, then 10 nM peptide 15 min",significant enhancement in the binding of exogenous fluorescent peptides
same,exogenous peptide binding over increasing ETVSK*QSNV concentrations,"HLA-A*68:02; -/+100 nM TAPBPR, 15 min",enhanced exogenous peptide binding to cells over a wide range of peptide concentrations
same,binding to either of the HeLaM cell lines,[1]; 10 nM recombinant protein,did not exhibit any binding
same,binding to HeLaM cells (lacking GFP),[1]; 100 nM recombinant protein,bound at low levels
same,OT1 cytotoxic T cell killing of peptide-pulsed EL4 target cells,EL4 tumour cells,significant enhancement in killing
same,binding to Her2-deficient HeLaM cells,Her2,still capable of binding
